Measured values from patent US20250223317A1, “KEAP1 INHIBITING PROTEIN-LIKE POLYMERS” (NORTHWESTERN UNIVERSITY, priority 2022, published 2025).

Test system: Antioxidant Response Element (ARE) Luciferase HepG2 Reporter cells
Description: Cells were plated at a seeding density of 25k cells/well into 96 well plates in cell growth media and allowed to incubate for 24 hours. […] After 24 hours, 10 μL of MTS reagent was added to each well, and the cells incubated for four hours at 37° C. Absorbance was measured at 490 nm using a Perkin Elmer EnSpire plate reader every hour after MTS addition. Viability was assessed after background subtraction from cell free control wells and calculated as relative viability based on the average of control wells. Viability is reported as a percentage of control groups and prepared for presentation using Prism9.
The reporter and cell viability assays were performed over a concentration range of 0 μM to 10 μM for each of the polymers described.
Cells were plated at a seeding density of 25k cells/well into 96 well plates in cell growth media and allowed to incubate for 24 hours. […] Luminescence was assessed using the Biotek SynergyNeo2 plate reader at the High Throughput Analysis Core at Northwestern University. Background luminescence of cell free controls wells was subtracted from test wells. […] Absorbance was measured at 490 nm using a Perkin Elmer EnSpire plate reader every hour after MTS addition. Viability was assessed after background subtraction from cell free control wells and calculated as relative viability based on the average of control wells. […]

## DLG Homopolymer (RQDIDLGVSRR)
  tolerability (MTS assay): well tolerated
